The values below come from PMC8649222, “Exclusive inhibition of IL-6 trans-signaling by soluble gp130^FlyRFc” (Cytokine: X, 2021).

B1: Hyper IL-11 (HIL-11), IL-11 covalently linked to sIL-11R (other)
chain: SSPCPQAWGPPGVQYGQPGRSVKLCCPGVTAGDPVSWFRDGEPKLLQGPDSGLGHELVLAQADSTDEGTYICQTLDGALGGTVTLQLGYPPARPVVSCQAADYENFSCTWSPSQISGLPTRYLTSYRKKTVLGADSQRRSPSTGPWPCPQDPLGAARCVVHGAEFWSQYRINVTEVNPLGASTRLLDVSLQSILRPDPPQGLRVESVPGYPRRLRASWTYPASWPCQPHFLLKFRLQYRPAQHPAWSTVEPAGLEEVITDAVAGLPHAVRVSARDFLDAGTWSTWSPEAWGTPSTGTIPKEIPAWGQLHTQPEVEPQVDSPAPPRPSLQPHPRLLDHRDSVEQVAVLAPGPPPGPPRVSPDPRAELDSTVLLTRSLLADTRQLAAQLRDKFPADGDHNLDSLPTLAMSAGALGALQLPGVLTRLRADLLSYLRHVQWLRRAGGSSLKTLEPELGTLQARLDRLLRRLQLLMSRLALPQPPPDPPAPPLAPPSSAWGGIRAAHAILGGLHLTLDWAVRGLLLLKTRL
B2: IL-27 (complex)
chain 1: FPRPPGRPQLSLQELRREFTVSLHLARKLLSEVRGQAHRFAESHLPGVNLYLLPLGEQLPDVSLTFQAWRRLSDPERLCFISTTLQPFHALLGGLGTQGRWTNMERMQLWAMRLDLRDLQRHLRFQVLAAGFNLPEEEEEEEEEEEEERKGLLPGALGSALQGPAQVSWPQLLSTYRLLHSLELVLSRAVRELLLLSKAGHSVWPLGFPTLSPQP
chain 2: RKGPPAALTLPRVQCRASRYPIAVDCSWTLPPAPNSTSPVSFIATYRLGMAARGHSWPCLQQTPTSTSCTITDVQLFSMAPYVLNVTAVHPWGSSSSFVPFITEHIIKPDPPEGVRLSPLAERQLQVQWEPPGSWPFPEIFSLKYWIRYKRQGAARFHRVGPIEATSFILRAVRPRARYYVQVAAQDLTDYGELSDWSLPATATMSLGK
B3: sgp130Fc (Fc fusion, human, UniProt P40189 23-619, looked up)
chain: ELLDPCGYISPESPVVQLHSNFTAVCVLKEKCMDYFHVNANYIVWKTNHFTIPKEQYTIINRTASSVTFTDIASLNIQLTCNILTFGQLEQNVYGITIISGLPPEKPKNLSCIVNEGKKMRCEWDGGRETHLETNFTLKSEWATHKFADCKAKRDTPTSCTVDYSTVYFVNIEVWVEAENALGKVTSDHINFDPVYKVKPNPPHNLSVINSEELSSILKLTWTNPSIKSVIILKYNIQYRTKDASTWSQIPPEDTASTRSSFTVQDLKPFTEYVFRIRCMKEDGKGYWSDWSEEASGITYEDRPSKAPSFWYKIDPSHTQGYRTVQLVWKTLPPFEANGKILDYEVTLTRWKSHLQNYTVNATKLTVNLTNDRYLATLTVRNLVGKSDAAVLTIPACDFQATHPVMDLKAFPKDNMLWVEWTTPRESVKKYILEWCVLSDKAPCITDWQQEDGTVHRTYLRGNLAESKCYLITVTPVYADGPGSPESIKAYLKQAPPSKGPTVRTKKVGKNEAVLEWDQLPVDVQNGFIRNYTIFYRTIIGNETAVNVDSSHTEYTLSSLTSDTLYMVRMAAYTDEGGKDGPEFTFTTPKFAQGEIE
B4: sgp130^FlyFc (Fc fusion, human, UniProt P40189 23-619, looked up)
chain: B3 chain with T80Y, Q91F, N92L
B5: sgp130^R281QFc (Fc fusion, human, UniProt P40189 23-619, looked up)
chain: B3 chain with R259Q

Assay [1] addresses B3. The experiment in a line: SPR; Biacore X100, multi-cycle; sgp130Fc variants captured on a Protein A chip (~500 RU); HIL-6 or HIL-11 injected at 0.1953-50 nM, 30 µl/min; 25 °C, PBS pH 7.4, 0.05% surfactant P20; 1:1 binding model. As to conditions: both partners purified.
Assay [2] concerns the target B4. The description is as above. As to conditions: both partners purified.
The target of the assay “sgp130^R281QFc” is B5. Described as above. As to conditions: both partners purified.
Assay [3] deals with B3. Put plainly: SPR; sgp130Fc and sgp130^FlyFc captured on a ProtA chip; increasing concentrations of IL-27 injected. As to conditions: both partners purified.
Assay [4] has as its target B4. The description is as above. As to conditions: both partners purified.
In assay [5] the target is B1. Put plainly: cell-based or functional assay.

Where a chain is given by its changes, count along the chain named.

Turning to B1, the Kd with sgp130Fc [1] came to 0.069 nM; with sgp130^FlyFc [2] it was 0.67 nM; in the assay with sgp130^R281QFc it was 0.61 nM. For the molecule B2, the values for the Kd with sgp130Fc [3] and in the assay with sgp130^FlyFc [4] were 69 nM and 58 nM, respectively. Regarding B3, the “IC50 of inhibition of H-IL-11 (10 ng/ml) induced proliferation of Ba/F3-gp130 cells (blocks HIL-11 from membrane-bound gp130)” value in assay [5] worked out at 0.12 nM. The same measure, in the same setting: the same measure for B4: 40.7 nM; for B5: 72.8 nM.
